Measurements taken from the DeepSol protein solubility set.

experiment: soluble on expression in E. coli; label from the status in PepcDB or PDB records

| Sequence | soluble on expression in E. coli |
| --- | --- |
| MGSSHHHHHHSSGLVPRGSHMVTGKAFPYVVVTGIAMTTALATDAETTWKLLLDRQSGIRTLDDPFVEEFDLPVRIGGHLLEEFDHQLTRIELRRMGYLQRMSTVLSRRLWENAGSPEVDTNRLMVSIGTGLGSAEELVFSYDDMRARGMKAVSPLTVQKYMPNGAAAAVGLERHAKAGVMTPVSACASGAEAIARAWQQIVLGEADAAICGGVETRIEAVPIAGFAQMRIVMSTNNDDPAGACRPFDRDRDGFVFGEGGALLLIETEEHAKARGANILARIMGASITSDGFHMVAPDPNGERAGHAITRAIQLAGLAPGDIDHVNAHATGTQVGDLAEGRAINNALGGNRPAVYAPKSALGHSVGAVGAVESILTVLALRDQVIPPTLNLVNLDPEIDLDVVAGEPRPGNYRYAINNSFGFGGHNVAIAFGRY | soluble |
| MGSSHHHHHHSSGRENLYFQGHMCILMATRAHPDYELILISNRDEFLARKTHATCWHNNDFILSPYDLAKTSAEKQIFGTWSGINKEGKLATILNLKLDNEQNNTKSRSRGLLPFIFLSIHKADFEDWDNYKKFEGHYDGLKSTGDFNFFYGDVIKKQYKVIDSLGRTFDVLSSTCRKDLDSYMVVSNGKFYDSSSIPGQAWEKVKVARDSLENLVLENIESDEEKIISSCFQLASKSSLPSTISNPDVLQMVDPNVTMNTIYVPPLRRPPRDDLGASIPDGDYYGTRSQIVLLVSKDSTRVTFIERVLYSSDEDVRKYSVTSPKEEKRFKFKL | soluble |
| MGSSHHHHHHSSGRENLYFQGHMSHRDTLFSAPIARLGDWTFDERVAEVFPDMIQRSVPGYSNIISMIGMLAERFVQPGTQVYDLGCSLGAATLSVRRNIHHDNCKIIAIDNSPAMIERCRRHIDAYKAPTPVDVIEGDIRDIAIENASMVVLNFTLQFLEPSERQALLDKIYQGLNPGGALVLSEKFSFEDAKVGELLFNMHHDFKRANGYSELEISQKRSMLENVMLTDSVETHKARLHNAGFEHSELWFQCFNFGSLVALKAEDAA | soluble |
| MGSTGETQITPTHISDEEANLFAMQLASASVLPMILKSALELDLLEIIAKAGPGAQISPIEIASQLPTTNPDAPVMLDRMLRLLACYIILTCSVRTQQDGKVQRLYGLATVAKYLVKNEDGVSISALNLMNQDKVLMESWYHLKDAVLDGGIPFNKAYGMTAFEYHGTDPRFNKVFNKGMSDHSTITMKKILETYTGFEGLKSLVDVGGGTGAVINTIVSKYPTIKGINFDLPHVIEDAPSYPGVEHVGGDMFVSIPKADAVFMKWICHDWSDEHCLKFLKNCYEALPDNGKVIVAECILPVAPDSSLATKGVVHIDVIMLAHNPGGKERTQKEFEDLAKGAGFQGFKVHCNAFNTYIMEFLKKV | soluble |
| MGSTSSLYAAIDLGSNSFHMLVVREVAGSIQTLTRIKRKVRLAAGLNSENDLSNEAMERGWQCLRLFAERLQDIPPSQIRVVATATLRLAVNAGDFIAKAQEILGCPVQVISGEEEARLIYQGVAHTTGGADQRLVVDIGGASTELVTGTGAQTTSLFSLSMGCVTWLERYFADRNLGQENFDAAEKAAREVLRPVADELRYHGWKVCVGASGTVQALQEIMMAQGMDERITLEKLQQLKQRAIHCGRLEELEIDGLTLERALVFPSGLAILIAIFTELNIQCMTLAGGALREGLVYGMLHLAVEQDIRSRTLRNIQRRFMIDIDQAQRVAKVAANFFDQVENEWHLEAISRDLLISACQLHEIGLSVDFKQAPQHAAYLVRNLDLPGFTPAQKKLLATLLLNQTNPVDLSSLHQQNAVPPRVAEQLCRLLRLAIIFASRRRDDLVPEMTLQANHELLTLTLPQGWLTQHPLGKEIIAQENQWQSYVHWPLEVH | not soluble |
| MGTAAERWERAQMFFDAKDYAVAARILDGLVDEVPEQTGPRLLLARSYYHSAQLGRAEAELRILVERDPVEHYARLMLGRTLQRQGRDDEADSQLRIASALAGLEHHHHHH | not soluble |
| MGTKQYKDGTYYAEADDFDESGWKDTVTIEVKNGKIVSVDWNAINKDGGDDKDTLSRNGGYKMVEYGGAQAEWHEQAEKVEAYLVEKQDPTDIKYKDNDGHTDAISGATIKVKKFFDLAQKALKDAEKLEHHHHHH | soluble |
| MGTMRIAFQGTAGAYSEEALLKVFPEAKPVGFPTFHQVFEAVEAGEAELGVVPVENTTAGSINQTYDLLLESDLHVVGEIVHRVEHCLLAPKGTTLKDLHAVKSHPQALAQCDGFLARMRLTPIPVFDTAGAAKELAEHPEPGLAAIASRRAAELYGLEVLAENIEDYPHNYTRFFVIGHKEPPRGQGPYKTSIVFAVRHRPGGLLEALSVFAEAGVNLTKLESRPRRDKPFSYLFYLDLEGHLEDPGPAQALLRLLRRVAFLKVLGSYPAHANGGVSAP | soluble |
